Drawing on publication PMC4324353, this text covers Kd for 3 molecules.

Read-outs that look alike come from different tables or passages of the source.

For orientation: Kd means the constant that tells how readily two partners part at equilibrium. Lower therefore signals tighter binding.

Assay [1] addresses T1, latrunculin B bound actin (A. castellani actin monomer) (A. castellani). In words: fluorescence polarisation.
In assay [2] the target is T1, latrunculin B bound actin (A. …). In words: fluorescence polarisation. The source holds these as a separate data set.
Assay [3] has as its target actin filaments (polymerized A. castellani actin) (A. castellani). Briefly: steady state polymerization titration.

In the case of WARFWVQVIDELRRGVRLKKSNHERT (domain or fragment, modifications not checked) [Spir first WH2 domain (SA)], the Kd in assay [1] was 1140 nM; in assay [2], 90 to 1130 nM.

With KKDAHAMILEFIRSRPPLKKA (domain or fragment, modifications not checked) [Spir third WH2 domain (Spir-C, SC)], the Kd in assay [1] was 210 nM; in assay [3], 2000 nM.

Consider KKDAHAMILEFIRSRPPLKKASDRQLGPPRMCEPS (domain or fragment, modifications not checked) [Spir third WH2 domain with Linker 3 (SC3)], for which the Kd in assay [1] came out at 110 nM.
